Measured values from patent US6110695A, “Modulating the interaction of the chemokine, B Lymphocyte Hemoattractant, and its Receptor, BLR1” (The Regents of the University of California, priority 1997, dated 2000).

B1: BLC: novel CXC chemokine; baculovirus-expressed mouse BLC (SEQ ID NO:2), mature protein starting at isoleucine 22 (protein)
chain: MRLSTATLLLLLASCLSPGHGILEAHYTNLKCRCSGVISTVVGLNIIDRIQVTPPGNGCPKTEVVIWTKMKKVICVNPRAKWLQRLLRHVQSKSLSSTPQAPVSKRRAA

How the values were obtained:
B cells = test: Transwell chemotaxis of spleen B cells; type: cell-based, mouse
Protocol: (§1) FIGS. 1(a)-(g). Chemotactic activity of BLC on leukocyte subtypes. Results are expressed as the percentage of input cells of each subtype migrating to the lower chamber of a Transwell filter. FIG. 1a show migration of B cells; FIG. 1b, CD4+T cells; FIG. 1c, CD8+T cells; FIG. 1d; granulocytes; and FIG. 1e, monocytes/macrophages to BLC. Positive controls are SDF1a (FIGS. 1a, b, c, e) and IL8 (FIG. 1d). […] BLC was added to the upper or lower chamber of the apparatus as indicated. […] Data points with error bars represent the mean 1 s.d. for triplicates; individual data points are shown for duplicates. Each experiment was performed a minimum of two times.
(§2) To test this possibility, chemotaxis assays were performed with lymphocytes from mouse spleen and baculovirus-expressed BLC estimated to bc greater than 95% pure by silver staining. […] An alternative possibility is that high potency is not rcquired for a chemokine that is expressed constitutively within lymphoid tissues.
(§3) Chemotaxis. Lymphocytes and macrophages were obtained from spleens of C57BL/6 mice. For macrophage chemotaxis, B cells were depleted by passage over a MACS column (Milteny Biotec, Auburn, Calif.) after incubation with biotinylated anti-B220 antibodies and streptavidin-coated magnetic beads. Granulocytes were obtained from mouse bone marrow suspensions. Mouse BLR1 transfected Jurkat cells were obtained by transfection with pREP4 containing the mouse BLR1 coding region (16), isolated by RT-PCR from mouse spleen RNA, and an amino terminal prolactin leader sequence and FLAG epitope (23). Positive clones were identified using the anti-FLAG antibody M1 (Kodak). Chemotaxis assays were performed as previously described (15) and subsets of migrating cells were identified by flow cytometry using antibodies specific for B220, CD4, CD8 (Pharmingen, San Diego, Calif.) and Mac-1 (Caltag, South San Francisco, Calif.). Granulocytes were identified by their characteristic large side scatter profile. In some experiments, cells were preincubated with 100 ng/ml pertussis toxin (List Biol. Labs, Campbell, Calif.) for 2 hrs at 37° C. IL-8 (R&D Systems, Minneapolis, Minn.) and synthetic human SDF1 a (N33A) synthesized by native chemical ligation (Gryphon Sciences, South San Francisco) were used as positive controls. SDF1a (N33A) has identical activity to native human and mouse SDF1a (24, 25).

[1] = test system: spleen monocytes/macrophages; test: Transwell chemotaxis of spleen monocytes/macrophages; type: cell-based, mouse; details: FIG. 1e
Protocol: as §1, §2
(§4) Chemotaxis. Lymphocytes and macrophages were obtained from spleens of C57BL/6 mice. For macrophage chemotaxis, B cells were depleted by passage over a MACS column (Milteny Biotec, Auburn, Calif.) after incubation with biotinylated anti-B220 antibodies and streptavidin-coated magnetic beads. Granulocytes were obtained from mouse bone marrow suspensions. […]

CD4 and CD8 T cells = test: Transwell chemotaxis of spleen CD4 and CD8 T cells; type: cell-based; details: mouse spleen lymphocytes, FIG. 1b, c
Protocol: as §1, §2, §4

granulocytes = test: Transwell chemotaxis of bone marrow granulocytes; type: cell-based, mouse; details: FIG. 1d
Protocol: as §1, §2, §4

BLR1 [2] = test: Calcium flux in BLR1 transfected 300-19 pre-B cells; type: cell-based, mouse; details: FIG. 2e
Excerpt: (§5) FIG. 2(a)-(f). BLR1-mediated calcium mobilization and chemotaxis in response to BLC. HEK 293 cells, stably transfected with the indicated chemokine receptors (FIGS. 2a-d), were loaded with the calcium probe Indo-1 and assayed by spectrofluorimetry for changes in intracellular calcium in response to BLC. FIG. 2a, Calcium flux as a function of BLC concentration (nM). FIG. 2b, Specificity of the response of BLR1 to BLC. FIG. 2c, Lack of response to BLC in CCR1-transfected cells. FIG. 2d, Lack of response to BLC in CXCR2-transfected cells. FIG. 2e, Percentage of maximal calcium flux as a function of BLC concentration in BLR1-transfected 300-19 cells. FIG. 2f, Chemotactic response of BLR1-transfected Jurkat cells to BLC. Results of chemotaxis are expressed as in FIG. 1.
(§6) We therefore tested whether BLC could signal through BLR1. […] Using BLR1 transfected 300-19 pre-B cells a more complete dose response curve was obtained showing that the response to BLC is saturable (FIG. 2e). […] We next tested the ability of BLC to stimulate chemotaxis through BLR1.
(§7) Calcium fluorimetry on transfected 293 and 300-19 cells. Native mouse BLR1 was subcloned into pBK-CMV (Stratagene) and used to transfect HEK 293 cells and 300-19 pre-B cells. […] Intracellular calcium concentrations were calculated using the Hitachi 4500 Intracellular Cation Measurement program.

BLR1 [3] = test: Chemotaxis of BLR1 transfected Jurkat T cells; type: cell-based, mouse; details: Jurkat T cells transfected with BLR1
Excerpt: as §5, §6, §4

Control transfectants = test: Calcium flux in control transfectants of 293 and 300-19 cells; type: cell-based; details: control transfectants of either cell line (293, 300-19)
Protocol: as §6
(§8) Calcium fluorimetry on transfected 293 and 300-19 cells. Native mouse BLR1 was subcloned into pBK-CMV (Stratagene) and used to transfect HEK 293 cells and 300-19 pre-B cells. G418-resistant clones were tested for BLR1 expression using an affinity purified rabbit anti-mouse antiserum that is specific for the BLR1 amino terminus. HEK293 cells expressing CCR1, CCR2 and CXCR2 were from the Cardiovascular Research Institute, UCSF. Ca2+-mobilization studies were performed as described (26) using a Hitachi 4500 spectrometer. Intracellular calcium concentrations were calculated using the Hitachi 4500 Intracellular Cation Measurement program.

BLR1- negative cells = test: Chemotaxis of BLR1-negative Jurkat cells; type: cell-based
Protocol: as §6
as §3, with “In some experiments, cells were preincubated with 100 ng/ml pertussis toxin (List Biol. Labs, Campbell, Calif.) for 2 hrs at 37° C. IL-8 (R&D Systems, Minneapolis, Minn.) and synthetic human SDF1 a (N33A) synthesized by native chemical ligation (Gryphon Sciences, South San Francisco) were used as positive controls. SDF1a (N33A) has identical activity to native human and mouse SDF1a (24, 25).” left out

mouse BLR1 = test: Calcium flux in HEK 293 cells stably transfected with mouse BLR1; type: cell-based; details: HEK 293 cells stably transfected with mouse BLR1, FIG. 2a, b
Excerpt: as §5, §6, §7

CCR1 = test: Calcium flux in 293 cells transfected with CCR1; type: cell-based; details: 293 cells transfected with CCR1, FIG. 2c
Excerpt: as §5, §6, §7

CCR2 = test: Calcium flux in 293 cells transfected with CCR2; type: cell-based
Protocol: as §6, §8

CXCR2 = test: Calcium flux in 293 cells transfected with CXCR2; type: cell-based; details: 293 cells transfected with CXCR2, FIG. 2d
Excerpt: as §5, §6, §7

Molecule	BLC-induced migration of pertussis toxin pretreated B cells (B cells; preincubated with 100 ng/ml pertussis toxin for 2 hrs at 37° C., FIG. 1g)	chemotactic activity for spleen monocytes/macrophages [1]	chemotactic activity towards CD4 and CD8 T cells (CD4 and CD8 T cells)	chemotactic activity towards granulocytes (granulocytes)	calcium flux dose response (BLR1 [2])	chemotactic response (BLR1 [3])	calcium flux response (Control transfectants)	chemotactic response (BLR1- negative cells)	calcium flux (mouse BLR1)	calcium flux (CCR1)	calcium flux (CCR2)	calcium flux (CXCR2)	potency as a B cell attractant (B cells; baculovirus expressed protein, compared with most chemokines)	migration of cells in the absence of a gradient (B cells; cells incubated with BLC in the absence of a gradient, FIG. 1f)	chemotactic response in B cells (B cells; mouse spleen lymphocytes, FIG. 1a)
pertussis toxin [reference compound]	failed to migrate														
B1		weak but reproducible chemotactic activity	limited activity	no chemotactic activity	saturable	showed a chemotactic response	did not respond	failed to respond	dose dependent calcium flux	failed to stimulate a calcium flux	failed to stimulate a calcium flux	failed to stimulate a calcium flux	potency less than that of most chemokines	failed to migrate	strong chemotactic response
